Where “and” joins values, the source holds several entries; their conditions need not be identical. Equal entries are not always repeated.
B1: anti-human von Willebrand factor monoclonal antibody 508 (mAb508) (antibody, mouse IgG1, kappa, V domains shown)
VH: DVQLQESGPDLVEPSQSLSLSCTVTGYSITSGYSWHWIRQFPGNKLEWLGYIHYSGTTTYNPSLHSRVSITRDTSKNQFFLQLNSVSTEDTATYFCGREGYHWGQGTTLTVSS
VL: DVVMTQTPLSLPVSLGDQASISCRSSQSLVHSIGNTYLHWYLQKPGQSPKLLIYKVSNRFSGVPDRFSGSGSGTDFTLKISRVEAEDLGVYFCSQTTHVPLTFGGGTRLEIKR
notes: Murine monoclonal antibody purified from hybridoma; also called antibody mAb508
B2: recombinant wild-type ADAMTS13 containing a V5- and a His-tag (wt-rADAMTS13) (protein)
chain: AAGGILHLELLVAVGPDVFQAHQEDTERYVLTNLNIGAELLRDPSLGAQFRVHLVKMVILTEPEGAPNITANLTSSLLSVCGWSQTINPEDDTDPGHADLVLYITRFDLELPDGNRQVRGVTQLGGACSPTWSCLITEDTGFDLGVTIAHEIGHSFGLEHDGAPGSGCGPSGHVMASDGAAPRAGLAWSPCSRRQLLSLLSAGRARCVWDPPRPQPGSAGHPPDAQPGLYYSANEQCRVAFGPKAVACTFAREHLDMCQALSCHTDPLDQSSCSRLLVPLLDGTECGVEKWCSKGRCRSLVELTPIAAVHGRWSSWGPRSPCSRSCGGGVVTRRRQCNNPRPAFGGRACVGADLQAEMCNTQACEKTQLEFMSQQCARTDGQPLRSSPGGASFYHWGAAVPHSQGDALCRHMCRAIGESFIMKRGDSFLDGTRCMPSGPREDGTLSLCVSGSCRTFGCDGRMDSQQVWDRCQVCGGDNSTCSPRKGSFTAGRAREYVTFLTVTPNLTSVYIANHRPLFTHLAVRIGGRYVVAGKMSISPNTTYPSLLEDGRVEYRVALTEDRLPRLEEIRIWGPLQEDADIQVYRRYGEEYGNLTRPDITFTYFQPKPRQAWVWAAVRGPCSVSCGAGLRWVNYSCLDQARKELVETVQCQGSQQPPAWPEACVLEPCPPYWAVGDFGPCSASCGGGLRERPVRCVEAQGSLLKTLPPARCRAGAQQPAVALETCNPQPCPARWEVSEPSSCTSAGGAGLALENETCVPGADGLEAPVTEGPGSVDEKLPAPEPCVGMSCPPGWGHLDATSAGEKAPSPWGSIRTGAQAAHVWTPAAGSCSVSCGRGLMELRFLCMDSALRVPVQEELCGLASKPGSRREVCQAVPCPARWQYKLAACSVSCGRGVVRRILYCARAHGEDDGEEILLDTQCQGLPRPEPQEACSLEPCPPRWKVMSLGPCSASCGLGTARRSVACVQLDQGQDVEVDEAACAALVRPEASVPCLIADCTYRWHVGTWMECSVSCGDGIQRRRDTCLGPQAQAPVPADFCQHLPKPVTVRGCWAGPCVGQGTPSLVPHEEAAAPGRTTATPAGASLEWSQARGLLFSPAPQPRRLLPGPQENSVQSSACGRQHLEPTGTIDMRGPGQADCAVAIGRPLGEVVTLRVLESSLNCSAGDMLLLWGRLTWRKMCRKLLDMTFSSKTNTLVVRQRCGRPGGGVLLRYGSQLAPETFYRECDMQLFGPWGEIVSPSLSPATSNAGGCRLFINVAPHARIAIHALATNMGAGTEGANASYILIRDTHSLRTTAFHGQQVLYWESESSQAEMEFSEGFLKAQASLRGQYWTLQSWVPEMQDPQSWKGKEGT

Key:
[1] = molecular target: recombinant wild-type ADAMTS13 containing a V5- and a His-tag (wt-rADAMTS13) (human) (UniProt Q76LX8); assay: competition immuno-sorbent assay, fragment 10 nM pre-incubated with wt-rADAMTS13, immobilized pd-VWF
[2] = molecular target: recombinant wild-type ADAMTS13 containing a V5- and a His-tag (wt-rADAMTS13) (human) (UniProt Q76LX8); assay: cell-based or functional assay
[3] = molecular target: T1, purified plasma-derived von Willebrand factor (pd-VWF) (human, UniProt P04275 764-2813); assay: competitive immuno-sorbent assay, mAb508 0 to 50 µg/ml against ADAMTS13 (4 µg/ml) on coated VWF (2 µg/ml)
T1 construct: mature; Multimeric plasma protein; also called full-length VWF; globular full-length VWF

[4] = molecular target: T1, purified plasma-derived von Willebrand …; assay: BLI (Octet-QK), equilibrium responses, mAb508 on protein A biosensors, pd-VWF in solution, single class of binding sites
Description: Subsequently, biosensors were incubated with various concentrations purified pd-VWF (0-0.2 mg/ml) and association of VWF was monitored real-time for a 10-min period until equilibrium was reached. Data represent mean±SD of four independent associations and depicted are the calculated responses (shift in nm) at equilibrium versus VWF concentration. The drawn line represents the best fit using a model describing the interaction of a single class of binding sites.
Biolayer interferometry-analysis: Equilibrium binding assays were performed via biolayer interferometry (BLI)-analysis using Octet-QK equipment (ForteBio, Reading, UK) essentially as described (26). […] Biosensors were then incubated for 5 min in BLI-buffer to achieve stable baseline, and subsequently incubated with various concentrations of pd-VWF in BLI-buffer for 10 min. All incubations were performed at room temperature under continuous shaking (1000 rpm). Data were analyzed using Octet Software version 4.0.

[5] = molecular target: purified plasma-derived von Willebrand factor (pd-VWF), P04275

Molecule | inhibition of ADAMTS13 binding to immobilized VWF [1] [%] | also measured
A1-Fc (from UniProt P04275 1261-1478) (Fc fusion) | < 20 | –
A2-Fc (from UniProt P04275 1480-1672) (Fc fusion) | 65 | residual proteolysis of VWF by ADAMTS13, vortex-based degradation assay, A2-Fc 1 µg/ml [2]: 96%
A3-Fc (from UniProt P04275 1681-1878) (Fc fusion) | < 20 | –
D4-Fc (from UniProt P04275 1947-2301) (Fc fusion) | < 20 | –
D′D3-HPC4 (from UniProt P04275 764-1247) | < 20 | –
B1 | – | IC50 [3]: 0.09 µg/mL; Kd [4]: 13 µg/mL and 52 nM
B2 | – | proteolytic cleavage of pd-VWF (30 µg/ml) by recombinant ADAMTS13 (3 µg/ml), vortex-based degradation assay [5]: proteolytic cleavage of pd-VWF (30 µg/ml) by recombinant ADAMTS13 (3 µg/ml) increases as a function of incubation time, with maximal degradation obtained after 30 min
